US20140140998

Columns and labels:
[1] = system: TM-V129A/I130A TβRI mutant (HA-tagged, in HA-caTβRI)
[2] = system: TβRI intracellular domain fragment (TβRI ICD), about 34 kDa
TβRI intracellular domain fragment (TβRI ICD), about 34 kDa, sequence (chain, as listed by the source): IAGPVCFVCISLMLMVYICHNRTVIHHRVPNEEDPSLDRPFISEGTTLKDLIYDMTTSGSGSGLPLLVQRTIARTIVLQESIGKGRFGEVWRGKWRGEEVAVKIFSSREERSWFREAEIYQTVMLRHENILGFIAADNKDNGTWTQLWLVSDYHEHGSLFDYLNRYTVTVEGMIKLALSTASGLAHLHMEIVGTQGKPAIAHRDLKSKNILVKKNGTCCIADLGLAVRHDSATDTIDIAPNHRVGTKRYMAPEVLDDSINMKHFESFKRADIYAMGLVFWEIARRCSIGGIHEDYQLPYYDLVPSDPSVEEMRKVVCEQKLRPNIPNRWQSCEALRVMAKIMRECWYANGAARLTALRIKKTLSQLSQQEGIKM

Substance: Presenilin 1 (PS1), endogenous
- production of TβRI ICD (immunoblot) [1]: Production of TβRI ICD was observed only in the TGF-treated cells transfected with caTβRI construct

Substance: p300, endogenous
- acetylation of the TβRI ICD (immunoblot with anti-acetyl-lysine) [2]: acetylation of the TβRI ICD was verified using an antibody specific for acetyl-lysine
